Reference: IntAct's records for PubMed 20818336

B1: Myocardin-related transcription factor A (Mus musculus), Q8K4J6 (parent)
chain: MTLLEPEMLMMAVQSVLQLKLQQRRTREELVSQGIMPPLKSPAAFHEQRRSLERARTEDYLKRKIRSRPERAELVRMHILEETSAEPSLQAKQLKLKRARLADDLNEKIAQRPGPMELVEKNILPVESSLKEAIIVGQVNYPKVADSSSFDEDSSDALSPEQPASHESQGSVPSPLESRVSDPLPSATSISPTQVLSQLPMAPDPGETLFLAEQPPLPPAPLLPPSLANGSIVPTAKPAPTLIKQSQPKSASEKSQRSKKAKELKPKVKKLKYHQYIPPDQKQDKGAPAMDSSYAKILQQQQLFLQLQILNQQQQQQQQQHYNYQAILPAPPKPSAETPGSSAPTPSRSLSTSSSPSSGTPGPSGLARQSSTALAAKPGALPANLDDMKVAELKQELKLRSLPVSGTKTELIERLRAYQDQVSPAPGAPKAPATTSVLSKAGEVVVAFPAALLSTGSALVTAGLAPAEMVVATVTSNGMVKFGSTGSTPPVSPTPSERSLLSTGDENSTPGDAFGEMVTSPLTQLTLQASPLQIVKEEGARAASCCLSPGARAELEGLDKDQMLQEKDKQIEELTRMLQQKQQLVELLRLQLEQQKRAQQPAPASSPVKRESGFSSCQLSCQPQGSAHAFGSGLVVPTTNHGDTQAPAPESPPVVVKQEAGPPEPDLAPSSQLLLGSQGTSFLKRVSPPTLVTDSTGTHLILTVTNKSADGPGLPAGSPQQPLSQPGSPAPGPPAQMDLEHPPQPPFATPTSLLKKEPPGYEETVTQQPKQQENGSSSQHMDDLFDILIQSGEISADFKEPPSLPGKEKSPPAAAAYGPPLTPQPSPLSELPQAAPPPGSPTLPGRLEDFLESSTGLPLLTSGHEGPEPLSLIDDLHSQMLSSSAILDHPPSPMDTSELHFAPEPSSGMGLDLAVGHLDSMDWLELSSGGPVLSLAPLSTAAPSLFSMDFLDGHDLQLHWDSCL
B2: Importin subunit alpha-3 (Homo sapiens), O00629 (parent)
chain: MADNEKLDNQRLKNFKNKGRDLETMRRQRNEVVVELRKNKRDEHLLKRRNVPHEDICEDSDIDGDYRVQNTSLEAIVQNASSDNQGIQLSAVQAARKLLSSDRNPPIDDLIKSGILPILVHCLERDDNPSLQFEAAWALTNIASGTSEQTQAVVQSNAVPLFLRLLHSPHQNVCEQAVWALGNIIGDGPQCRDYVISLGVVKPLLSFISPSIPITFLRNVTWVMVNLCRHKDPPPPMETIQEILPALCVLIHHTDVNILVDTVWALSYLTDAGNEQIQMVIDSGIVPHLVPLLSHQEVKVQTAALRAVGNIVTGTDEQTQVVLNCDALSHFPALLTHPKEKINKEAVWFLSNITAGNQQQVQAVIDANLVPMIIHLLDKGDFGTQKEAAWAISNLTISGRKDQVAYLIQQNVIPPFCNLLTVKDAQVVQVVLDGLSNILKMAEDEAETIGNLIEECGGLEKIEQLQNHENEDIYKLAYEIIDQFFSSDDIDEDPSLVPEAIQGGTFGFNSSANVPTEGFQF
partner: B1 chain

Variants of: B1
Conditions: with ima3_human KPNA4, O00629

Variant	effect of a mutation on the interaction
K95A;L96A;K97A	decreasing interaction strength
K62A;R63A;K64A	decreasing interaction strength
K62A;R63A;K64A;K95A;L96A;K97A	disrupting interaction strength

Variants of: B1
Conditions: with imb1_human KPNB1, Q14974
imb1_human KPNB1, Q14974, sequence (Q14974 whole entry): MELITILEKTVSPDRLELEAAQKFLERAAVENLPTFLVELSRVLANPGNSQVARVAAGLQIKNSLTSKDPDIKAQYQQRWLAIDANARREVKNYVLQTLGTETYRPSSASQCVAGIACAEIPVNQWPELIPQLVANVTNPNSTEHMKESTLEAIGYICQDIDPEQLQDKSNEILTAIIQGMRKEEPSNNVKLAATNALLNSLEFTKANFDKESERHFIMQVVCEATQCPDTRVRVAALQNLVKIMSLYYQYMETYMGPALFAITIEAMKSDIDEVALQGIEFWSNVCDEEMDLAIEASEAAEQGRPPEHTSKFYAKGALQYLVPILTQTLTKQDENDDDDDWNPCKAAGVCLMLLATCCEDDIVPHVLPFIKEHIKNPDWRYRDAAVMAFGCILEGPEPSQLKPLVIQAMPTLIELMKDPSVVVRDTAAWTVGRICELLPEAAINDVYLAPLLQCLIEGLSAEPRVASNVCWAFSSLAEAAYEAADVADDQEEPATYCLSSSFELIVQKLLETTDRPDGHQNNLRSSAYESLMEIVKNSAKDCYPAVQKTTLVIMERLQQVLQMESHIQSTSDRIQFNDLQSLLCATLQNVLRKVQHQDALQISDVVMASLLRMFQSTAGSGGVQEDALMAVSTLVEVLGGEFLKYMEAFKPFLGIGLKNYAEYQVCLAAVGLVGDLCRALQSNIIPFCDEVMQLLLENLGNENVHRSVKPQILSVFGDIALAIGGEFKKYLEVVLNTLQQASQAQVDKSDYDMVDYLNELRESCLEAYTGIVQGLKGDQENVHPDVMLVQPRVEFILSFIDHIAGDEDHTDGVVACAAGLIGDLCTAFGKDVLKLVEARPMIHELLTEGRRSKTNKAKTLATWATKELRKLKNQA

Variant	effect of a mutation on the interaction
K95A;L96A;K97A	disrupting interaction strength
K62A;R63A;K64A	decreasing interaction strength

Variants of: B2
Conditions: with mrtfa_mouse Mrtfa

Variant	effect of a mutation on the interaction
W179A;N183A;W390A;N394A	decreasing interaction strength
W179A;N183A	decreasing interaction strength
W390A;N394A	decreasing interaction strength
